Data taken from the supplement of paper PMC9112550, “Optimization of the antimicrobial peptide Bac7 by deep mutational scanning” (BMC Biology, 2022).

Tested on: Escherichia coli TOP10
Test: shrunken log2 fold change of peptide-encoding DNA abundance (4.5 h post-induction vs induction); higher = less antimicrobial activity (less host growth inhibition)
Details: time post-induction: 4.5 h; library: site-saturation at positions 5, 18, 19, 20
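Further: peptides expressed intracellularly from a pBAD plasmid library in pooled LB shake-flask culture, induced with 0.3% L-arabinose, DNA abundance read by NGS, three biological replicates, DESeq2 with apeglm shrinkage.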

RRIRNRPPRLPRPRPRPHYMPRP
shrunken log2 fold change: -0.389

RRIRNRPPRLPRPRPRPHYQPRP
shrunken log2 fold change: -0.568

RRIRNRPPRLPRPRPRPICEPRP
shrunken log2 fold change: 0.0602

RRIRNRPPRLPRPRPRPIELPRP
shrunken log2 fold change: -0.232

RRIRNRPPRLPRPRPRPIFLPRP
shrunken log2 fold change: -0.182

RRIRNRPPRLPRPRPRPIGCPRP
shrunken log2 fold change: 0.0526

RRIRNRPPRLPRPRPRPIGDPRP
shrunken log2 fold change: -0.0116

RRIRNRPPRLPRPRPRPIGYPRP
shrunken log2 fold change: 0.103

RRIRNRPPRLPRPRPRPIHMPRP
shrunken log2 fold change: 0.0468

RRIRNRPPRLPRPRPRPIHQPRP
shrunken log2 fold change: -0.189

RRIRNRPPRLPRPRPRPIIDPRP
shrunken log2 fold change: -0.361

RRIRNRPPRLPRPRPRPIKSPRP
shrunken log2 fold change: -0.245

RRIRNRPPRLPRPRPRPIPNPRP
shrunken log2 fold change: -0.428

RRIRNRPPRLPRPRPRPIPRPRP
shrunken log2 fold change: 0.0496

RRIRNRPPRLPRPRPRPIQEPRP
shrunken log2 fold change: -0.0116

RRIRNRPPRLPRPRPRPIQFPRP
shrunken log2 fold change: -0.178

RRIRNRPPRLPRPRPRPIQRPRP
shrunken log2 fold change: 0.00743

RRIRNRPPRLPRPRPRPIRFPRP
shrunken log2 fold change: -0.0225

RRIRNRPPRLPRPRPRPIRLPRP
shrunken log2 fold change: -0.0969

RRIRNRPPRLPRPRPRPIRTPRP
shrunken log2 fold change: -0.176

RRIRNRPPRLPRPRPRPISKPRP
shrunken log2 fold change: -0.472

RRIRNRPPRLPRPRPRPISYPRP
shrunken log2 fold change: -0.029

RRIRNRPPRLPRPRPRPITIPRP
shrunken log2 fold change: -0.366

RRIRNRPPRLPRPRPRPITQPRP
shrunken log2 fold change: -0.187

RRIRNRPPRLPRPRPRPITRPRP
shrunken log2 fold change: -0.0765

RRIRNRPPRLPRPRPRPIVIPRP
shrunken log2 fold change: -0.29

RRIRNRPPRLPRPRPRPIWDPRP
shrunken log2 fold change: -0.14

RRIRNRPPRLPRPRPRPIWHPRP
shrunken log2 fold change: -0.356

RRIRNRPPRLPRPRPRPIWMPRP
shrunken log2 fold change: 0.178

RRIRNRPPRLPRPRPRPIYRPRP
shrunken log2 fold change: -0.356

RRIRNRPPRLPRPRPRPKAEPRP
shrunken log2 fold change: 0.153

RRIRNRPPRLPRPRPRPKDVPRP
shrunken log2 fold change: -0.0116

RRIRNRPPRLPRPRPRPKEIPRP
shrunken log2 fold change: 0.0136

RRIRNRPPRLPRPRPRPKEVPRP
shrunken log2 fold change: 0.0999

RRIRNRPPRLPRPRPRPKEYPRP
shrunken log2 fold change: 0.199

RRIRNRPPRLPRPRPRPKFVPRP
shrunken log2 fold change: -0.0126

RRIRNRPPRLPRPRPRPKGFPRP
shrunken log2 fold change: -0.0324

RRIRNRPPRLPRPRPRPKGNPRP
shrunken log2 fold change: -0.00941

RRIRNRPPRLPRPRPRPKITPRP
shrunken log2 fold change: -0.367

RRIRNRPPRLPRPRPRPKKCPRP
shrunken log2 fold change: -0.209

RRIRNRPPRLPRPRPRPKKIPRP
shrunken log2 fold change: -0.187

RRIRNRPPRLPRPRPRPKLDPRP
shrunken log2 fold change: 0.00863

RRIRNRPPRLPRPRPRPKLKPRP
shrunken log2 fold change: 0.2

RRIRNRPPRLPRPRPRPKNIPRP
shrunken log2 fold change: -0.483

RRIRNRPPRLPRPRPRPKQFPRP
shrunken log2 fold change: -0.214

RRIRNRPPRLPRPRPRPKSCPRP
shrunken log2 fold change: -0.0533

RRIRNRPPRLPRPRPRPKTIPRP
shrunken log2 fold change: -0.14

RRIRNRPPRLPRPRPRPKTKPRP
shrunken log2 fold change: -0.0202

RRIRNRPPRLPRPRPRPKWNPRP
shrunken log2 fold change: -0.319

RRIRNRPPRLPRPRPRPKYGPRP
shrunken log2 fold change: -0.174

RRIRNRPPRLPRPRPRPKYPPRP
shrunken log2 fold change: -0.137

RRIRNRPPRLPRPRPRPLAAPRP
shrunken log2 fold change: 0.568

RRIRNRPPRLPRPRPRPLCCPRP
shrunken log2 fold change: -0.371

RRIRNRPPRLPRPRPRPLCSPRP
shrunken log2 fold change: -0.0294

RRIRNRPPRLPRPRPRPLDYPRP
shrunken log2 fold change: -0.309

RRIRNRPPRLPRPRPRPLECPRP
shrunken log2 fold change: -0.311

RRIRNRPPRLPRPRPRPLEFPRP
shrunken log2 fold change: -0.109

RRIRNRPPRLPRPRPRPLELPRP
shrunken log2 fold change: -0.0825

RRIRNRPPRLPRPRPRPLEQPRP
shrunken log2 fold change: -0.166

RRIRNRPPRLPRPRPRPLFYPRP
shrunken log2 fold change: -0.586

RRIRNRPPRLPRPRPRPLGAPRP
shrunken log2 fold change: 0.413

RRIRNRPPRLPRPRPRPLISPRP
shrunken log2 fold change: 3.16

RRIRNRPPRLPRPRPRPLMNPRP
shrunken log2 fold change: -0.853

RRIRNRPPRLPRPRPRPLMYPRP
shrunken log2 fold change: -0.158

RRIRNRPPRLPRPRPRPLNEPRP
shrunken log2 fold change: -0.233

RRIRNRPPRLPRPRPRPLNGPRP
shrunken log2 fold change: -0.0206

RRIRNRPPRLPRPRPRPLPDPRP
shrunken log2 fold change: -0.0552

RRIRNRPPRLPRPRPRPLQNPRP
shrunken log2 fold change: 0.176

RRIRNRPPRLPRPRPRPLRHPRP
shrunken log2 fold change: -0.0731

RRIRNRPPRLPRPRPRPLRYPRP
shrunken log2 fold change: 0.0165

RRIRNRPPRLPRPRPRPLTCPRP
shrunken log2 fold change: -0.149

RRIRNRPPRLPRPRPRPLVAPRP
shrunken log2 fold change: -0.124

RRIRNRPPRLPRPRPRPLVEPRP
shrunken log2 fold change: -0.187

RRIRNRPPRLPRPRPRPLVKPRP
shrunken log2 fold change: -0.741

RRIRNRPPRLPRPRPRPLYGPRP
shrunken log2 fold change: -0.171

RRIRNRPPRLPRPRPRPMASPRP
shrunken log2 fold change: -0.0269

RRIRNRPPRLPRPRPRPMCQPRP
shrunken log2 fold change: -0.0153

RRIRNRPPRLPRPRPRPMFRPRP
shrunken log2 fold change: -0.0515

RRIRNRPPRLPRPRPRPMGDPRP
shrunken log2 fold change: -0.00663

RRIRNRPPRLPRPRPRPMHCPRP
shrunken log2 fold change: -0.0148

RRIRNRPPRLPRPRPRPMHNPRP
shrunken log2 fold change: -0.286

RRIRNRPPRLPRPRPRPMHPPRP
shrunken log2 fold change: -0.212

RRIRNRPPRLPRPRPRPMHYPRP
shrunken log2 fold change: -0.13

RRIRNRPPRLPRPRPRPMKEPRP
shrunken log2 fold change: 0.0626

RRIRNRPPRLPRPRPRPMKYPRP
shrunken log2 fold change: -0.164

RRIRNRPPRLPRPRPRPMLCPRP
shrunken log2 fold change: 0.0164

RRIRNRPPRLPRPRPRPMLGPRP
shrunken log2 fold change: 0.0259

RRIRNRPPRLPRPRPRPMLMPRP
shrunken log2 fold change: -0.0217

RRIRNRPPRLPRPRPRPMLNPRP
shrunken log2 fold change: -0.21

RRIRNRPPRLPRPRPRPMMQPRP
shrunken log2 fold change: -0.208

RRIRNRPPRLPRPRPRPMQIPRP
shrunken log2 fold change: 0.0592

RRIRNRPPRLPRPRPRPMRWPRP
shrunken log2 fold change: 0.892

RRIRNRPPRLPRPRPRPMSPPRP
shrunken log2 fold change: -0.000685

RRIRNRPPRLPRPRPRPMTAPRP
shrunken log2 fold change: -0.167

RRIRNRPPRLPRPRPRPMTEPRP
shrunken log2 fold change: 0.00748

RRIRNRPPRLPRPRPRPMTSPRP
shrunken log2 fold change: -0.0113

RRIRNRPPRLPRPRPRPMYTPRP
shrunken log2 fold change: -0.48

RRIRNRPPRLPRPRPRPNALPRP
shrunken log2 fold change: -0.134

RRIRNRPPRLPRPRPRPNAYPRP
shrunken log2 fold change: -0.0738

RRIRNRPPRLPRPRPRPNCAPRP
shrunken log2 fold change: -0.123

RRIRNRPPRLPRPRPRPNDQPRP
shrunken log2 fold change: -0.309

RRIRNRPPRLPRPRPRPNDYPRP
shrunken log2 fold change: -0.365

RRIRNRPPRLPRPRPRPNEHPRP
shrunken log2 fold change: -0.071

RRIRNRPPRLPRPRPRPNGTPRP
shrunken log2 fold change: -0.167

RRIRNRPPRLPRPRPRPNHKPRP
shrunken log2 fold change: -0.688

RRIRNRPPRLPRPRPRPNHNPRP
shrunken log2 fold change: -0.858

RRIRNRPPRLPRPRPRPNHQPRP
shrunken log2 fold change: -0.241

RRIRNRPPRLPRPRPRPNIDPRP
shrunken log2 fold change: -0.936

RRIRNRPPRLPRPRPRPNIFPRP
shrunken log2 fold change: -0.29

RRIRNRPPRLPRPRPRPNKNPRP
shrunken log2 fold change: -0.406

RRIRNRPPRLPRPRPRPNLEPRP
shrunken log2 fold change: 0.0441

RRIRNRPPRLPRPRPRPNLVPRP
shrunken log2 fold change: -0.0403

RRIRNRPPRLPRPRPRPNMSPRP
shrunken log2 fold change: -0.0455

RRIRNRPPRLPRPRPRPNPFPRP
shrunken log2 fold change: -0.0489

RRIRNRPPRLPRPRPRPNQRPRP
shrunken log2 fold change: 0.0166

RRIRNRPPRLPRPRPRPNRKPRP
shrunken log2 fold change: 2.2

RRIRNRPPRLPRPRPRPNSVPRP
shrunken log2 fold change: -0.0503

RRIRNRPPRLPRPRPRPNVAPRP
shrunken log2 fold change: 3.26

RRIRNRPPRLPRPRPRPNWFPRP
shrunken log2 fold change: -0.145

RRIRNRPPRLPRPRPRPNYNPRP
shrunken log2 fold change: -1.07

RRIRNRPPRLPRPRPRPPAWPRP
shrunken log2 fold change: 0.369

RRIRNRPPRLPRPRPRPPCCPRP
shrunken log2 fold change: 0.123

RRIRNRPPRLPRPRPRPPCTPRP
shrunken log2 fold change: -0.234

RRIRNRPPRLPRPRPRPPDIPRP
shrunken log2 fold change: -0.341

RRIRNRPPRLPRPRPRPPELPRP
shrunken log2 fold change: 0.142

RRIRNRPPRLPRPRPRPPFIPRP
shrunken log2 fold change: -0.551

RRIRNRPPRLPRPRPRPPGKPRP
shrunken log2 fold change: 0.484

RRIRNRPPRLPRPRPRPPGLPRP
shrunken log2 fold change: 0.46

RRIRNRPPRLPRPRPRPPIGPRP
shrunken log2 fold change: 0.106

RRIRNRPPRLPRPRPRPPIIPRP
shrunken log2 fold change: -0.192

RRIRNRPPRLPRPRPRPPIMPRP
shrunken log2 fold change: -0.549

RRIRNRPPRLPRPRPRPPMGPRP
shrunken log2 fold change: -0.0346

RRIRNRPPRLPRPRPRPPMSPRP
shrunken log2 fold change: -0.0527

RRIRNRPPRLPRPRPRPPNDPRP
shrunken log2 fold change: 0.182

RRIRNRPPRLPRPRPRPPNIPRP
shrunken log2 fold change: -0.226

RRIRNRPPRLPRPRPRPPNQPRP
shrunken log2 fold change: -0.0523

RRIRNRPPRLPRPRPRPPPSPRP
shrunken log2 fold change: 1

RRIRNRPPRLPRPRPRPPQDPRP
shrunken log2 fold change: 0.0281

RRIRNRPPRLPRPRPRPPQHPRP
shrunken log2 fold change: 0.149

RRIRNRPPRLPRPRPRPPRAPRP
shrunken log2 fold change: 0.658

RRIRNRPPRLPRPRPRPPRMPRP
shrunken log2 fold change: 0.24

RRIRNRPPRLPRPRPRPPRRPRP
shrunken log2 fold change: 0.518

RRIRNRPPRLPRPRPRPPTHPRP
shrunken log2 fold change: 0.0725

RRIRNRPPRLPRPRPRPPTQPRP
shrunken log2 fold change: 0.267

RRIRNRPPRLPRPRPRPPTSPRP
shrunken log2 fold change: 0.298

RRIRNRPPRLPRPRPRPPTWPRP
shrunken log2 fold change: 0.434

RRIRNRPPRLPRPRPRPPVPPRP
shrunken log2 fold change: 0.384

RRIRNRPPRLPRPRPRPPWIPRP
shrunken log2 fold change: -0.0807

RRIRNRPPRLPRPRPRPPWWPRP
shrunken log2 fold change: 0.788

RRIRNRPPRLPRPRPRPQADPRP
shrunken log2 fold change: -0.0176
